# Article PMC10790770
# How the values were obtained:
# Test in all cases: cross-linking; cysteine cross-linking with CuCl2 in E. coli co-producing the T2SS lacking pulF (pCHAP8252) and PulF or PulFΔN Cys variants (pCHAP8259 derivatives); total extracts on 4%–15% SDS gradient gels, blot with anti-PulFC
# [1] = target: PulF^V171C-P371C (K. oxytoca) (UniProt P15745)
# [2] = target: PulF^Y168C-E370C (K. oxytoca) (UniProt P15745)
# [3] = target: PulFΔN^V171C-P371C (K. oxytoca) (UniProt P15745)
# [4] = target: PulFΔN^Y168C-E370C (K. oxytoca) (UniProt P15745)
substance,measurement,setting,value
PulF^V171C-P371C (from UniProt P15745 1-381) (natural protein),stoichiometry N,[1],3
PulF^Y168C-E370C (from UniProt P15745 1-381) (natural protein),stoichiometry N,[2],3
PulFΔN^V171C-P371C (from UniProt P15745 35-381) (domain or fragment),stoichiometry N,[3],3
PulFΔN^Y168C-E370C (from UniProt P15745 35-381) (domain or fragment),stoichiometry N,[4],3
